This data set has as its system Escherichia coli TOP10. Description: shrunken log2 fold change of peptide-encoding DNA abundance (4.5 h post-induction vs induction); higher = less antimicrobial activity (less host growth inhibition). As to conditions: time post-induction: 4.5 h; library: site-saturation at positions 5, 18, 19, 20.

The values below come from the supplement of paper PMC9112550, “Optimization of the antimicrobial peptide Bac7 by deep mutational scanning” (BMC Biology, 2022).
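Further: peptides expressed intracellularly from a pBAD plasmid library in pooled LB shake-flask culture, induced with 0.3% L-arabinose, DNA abundance read by NGS, three biological replicates, DESeq2 with apeglm shrinkage.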

Regarding RRIRNRPPRLPRPRPRPIWYPRP, the “shrunken log2 fold change” value was -0.0752.

As to RRIRMRPPRLPRPRPRPCKIPRP, the “shrunken log2 fold change” value was -0.0518.

On to RRIRARPPRLPRPRPRPYKDPRP, for which the “shrunken log2 fold change” value is -0.348.

Take RRIRVRPPRLPRPRPRPNQEPRP: the “shrunken log2 fold change” value was -0.176.

Take RRIRFRPPRLPRPRPRPLAEPRP: the “shrunken log2 fold change” value was -0.0472.

In the case of RRIRCRPPRLPRPRPRPKRHPRP, the “shrunken log2 fold change” value worked out at 0.341.

Take RRIRSRPPRLPRPRPRPMRPPRP: the “shrunken log2 fold change” value turned out to be 0.787.

Consider RRIRWRPPRLPRPRPRPQVVPRP, for which the “shrunken log2 fold change” value was -0.00458.

For the sequence RRIRLRPPRLPRPRPRPFWVPRP, the “shrunken log2 fold change” value is -0.11.

As for RRIRPRPPRLPRPRPRPGGDPRP, the “shrunken log2 fold change” value amounted to 0.496.

With RRIRLRPPRLPRPRPRPVGTPRP, the “shrunken log2 fold change” value was determined as 0.00938.

In the case of RRIRCRPPRLPRPRPRPGADPRP, the “shrunken log2 fold change” value worked out at 0.484.

RRIRYRPPRLPRPRPRPGTEPRP: the “shrunken log2 fold change” value was -0.521.

As to RRIRVRPPRLPRPRPRPLYRPRP, the “shrunken log2 fold change” value is -0.047.

Take RRIRTRPPRLPRPRPRPTTLPRP: the “shrunken log2 fold change” value was -0.316.

As to RRIRTRPPRLPRPRPRPQPAPRP, the “shrunken log2 fold change” value was 0.0787.

Take RRIRKRPPRLPRPRPRPKENPRP: the “shrunken log2 fold change” value is 0.189.

RRIRWRPPRLPRPRPRPFRHPRP: the “shrunken log2 fold change” value was -0.0307.

For RRIRGRPPRLPRPRPRPLEPPRP, the “shrunken log2 fold change” value was found to be 0.231.

For RRIRQRPPRLPRPRPRPGRDPRP, the “shrunken log2 fold change” value came to 3.85.

For the sequence RRIRERPPRLPRPRPRPHVLPRP, the “shrunken log2 fold change” value is -0.202.

Consider RRIRERPPRLPRPRPRPNLCPRP, for which the “shrunken log2 fold change” value is -0.13.

As for RRIRDRPPRLPRPRPRPHGFPRP, the “shrunken log2 fold change” value was -0.00776.

RRIRERPPRLPRPRPRPAERPRP: the “shrunken log2 fold change” value amounted to 0.104.

Regarding RRIRDRPPRLPRPRPRPLYGPRP, the “shrunken log2 fold change” value is -0.105.

For the sequence RRIRVRPPRLPRPRPRPRIHPRP, the “shrunken log2 fold change” value was -0.219.

In the case of RRIRGRPPRLPRPRPRPKTIPRP, the “shrunken log2 fold change” value turned out to be 0.445.

As to RRIRPRPPRLPRPRPRPWGTPRP, the “shrunken log2 fold change” value was -0.0725.

Regarding RRIRKRPPRLPRPRPRPFQMPRP, the “shrunken log2 fold change” value is -0.28.

Consider RRIRNRPPRLPRPRPRPQSIPRP, for which the “shrunken log2 fold change” value is -0.0502.

Take RRIRVRPPRLPRPRPRPFSSPRP: the “shrunken log2 fold change” value was -0.068.

Regarding RRIRGRPPRLPRPRPRPQLYPRP, the “shrunken log2 fold change” value turned out to be 0.415.

Consider RRIRIRPPRLPRPRPRPCMCPRP, for which the “shrunken log2 fold change” value was -0.422.

Turning to RRIRDRPPRLPRPRPRPICIPRP, the “shrunken log2 fold change” value was found to be 0.0464.

Consider RRIRTRPPRLPRPRPRPENYPRP, for which the “shrunken log2 fold change” value was -0.00973.

As to RRIRHRPPRLPRPRPRPKPTPRP, the “shrunken log2 fold change” value turned out to be 0.0736.

For the sequence RRIRQRPPRLPRPRPRPMNMPRP, the “shrunken log2 fold change” value stood at 0.0227.

Take RRIRNRPPRLPRPRPRPPMWPRP: the “shrunken log2 fold change” value is -0.115.

Regarding RRIRCRPPRLPRPRPRPACPPRP, the “shrunken log2 fold change” value is -0.136.

Take RRIRYRPPRLPRPRPRPSWIPRP: the “shrunken log2 fold change” value was -0.341.

Consider RRIRWRPPRLPRPRPRPLPMPRP, for which the “shrunken log2 fold change” value is 0.105.

Consider RRIRSRPPRLPRPRPRPTDIPRP, for which the “shrunken log2 fold change” value was -0.489.

As to RRIRSRPPRLPRPRPRPQGLPRP, the “shrunken log2 fold change” value is 0.0641.

Regarding RRIRERPPRLPRPRPRPMCHPRP, the “shrunken log2 fold change” value is 0.0346.

Regarding RRIRCRPPRLPRPRPRPSLKPRP, the “shrunken log2 fold change” value is -0.23.

Consider RRIRSRPPRLPRPRPRPTGGPRP, for which the “shrunken log2 fold change” value turned out to be 0.259.

With RRIRHRPPRLPRPRPRPMPEPRP, the “shrunken log2 fold change” value came out at 0.283.

For the sequence RRIRPRPPRLPRPRPRPPDCPRP, the “shrunken log2 fold change” value is -0.0878.

For the sequence RRIRWRPPRLPRPRPRPIAIPRP, the “shrunken log2 fold change” value was -0.347.

Take RRIRYRPPRLPRPRPRPALYPRP: the “shrunken log2 fold change” value is -0.284.

RRIRQRPPRLPRPRPRPSLEPRP: the “shrunken log2 fold change” value turned out to be 0.0433.

Turning to RRIRPRPPRLPRPRPRPTECPRP, the “shrunken log2 fold change” value turned out to be 0.0179.

For RRIRKRPPRLPRPRPRPTYRPRP, the “shrunken log2 fold change” value is 0.647.

Take RRIRHRPPRLPRPRPRPWNPPRP: the “shrunken log2 fold change” value was -0.221.

On to RRIRIRPPRLPRPRPRPCLDPRP, for which the “shrunken log2 fold change” value is -0.0653.

RRIRPRPPRLPRPRPRPEHCPRP: the “shrunken log2 fold change” value is -0.034.

Turning to RRIRKRPPRLPRPRPRPERGPRP, the “shrunken log2 fold change” value was determined as 0.443.

Regarding RRIRGRPPRLPRPRPRPVQVPRP, the “shrunken log2 fold change” value turned out to be 0.215.

Regarding RRIRARPPRLPRPRPRPLRAPRP, the “shrunken log2 fold change” value came to 1.19.

As to RRIRARPPRLPRPRPRPCHQPRP, the “shrunken log2 fold change” value was -0.34.

Consider RRIRCRPPRLPRPRPRPSMIPRP, for which the “shrunken log2 fold change” value was -0.892.

RRIRTRPPRLPRPRPRPKFFPRP: the “shrunken log2 fold change” value was -0.00469.

For the sequence RRIRYRPPRLPRPRPRPIEPPRP, the “shrunken log2 fold change” value is -0.111.

For RRIRMRPPRLPRPRPRPPARPRP, the “shrunken log2 fold change” value was found to be 1.4.

Regarding RRIRDRPPRLPRPRPRPNYEPRP, the “shrunken log2 fold change” value is -0.252.

In the case of RRIRMRPPRLPRPRPRPQGCPRP, the “shrunken log2 fold change” value was -0.00385.

Regarding RRIRIRPPRLPRPRPRPRPKPRP, the “shrunken log2 fold change” value came out at 0.567.

On to RRIRHRPPRLPRPRPRPVMFPRP, for which the “shrunken log2 fold change” value was -0.0942.

For the sequence RRIRARPPRLPRPRPRPMWSPRP, the “shrunken log2 fold change” value came out at 0.0725.

RRIRTRPPRLPRPRPRPQTYPRP: the “shrunken log2 fold change” value was -0.0726.

Regarding RRIRPRPPRLPRPRPRPPAWPRP, the “shrunken log2 fold change” value is 0.452.

Turning to RRIRVRPPRLPRPRPRPWRPPRP, the “shrunken log2 fold change” value is 0.328.

Consider RRIRERPPRLPRPRPRPDKFPRP, for which the “shrunken log2 fold change” value is -0.466.

Take RRIRTRPPRLPRPRPRPCHSPRP: the “shrunken log2 fold change” value was -0.039.

For RRIRPRPPRLPRPRPRPVYEPRP, the “shrunken log2 fold change” value is -0.0626.

Regarding RRIRVRPPRLPRPRPRPADPPRP, the “shrunken log2 fold change” value turned out to be 0.0239.

On to RRIRQRPPRLPRPRPRPSHPPRP, for which the “shrunken log2 fold change” value was -0.272.

In the case of RRIRGRPPRLPRPRPRPYFYPRP, the “shrunken log2 fold change” value is -0.03.

For RRIRCRPPRLPRPRPRPHSDPRP, the “shrunken log2 fold change” value is -0.412.

Consider RRIRVRPPRLPRPRPRPACLPRP, for which the “shrunken log2 fold change” value was -0.444.

As to RRIRCRPPRLPRPRPRPKKFPRP, the “shrunken log2 fold change” value was -0.00227.

For RRIRCRPPRLPRPRPRPCVDPRP, the “shrunken log2 fold change” value is -0.164.

As for RRIRLRPPRLPRPRPRPFLMPRP, the “shrunken log2 fold change” value is -0.551.

With RRIRKRPPRLPRPRPRPLVGPRP, the “shrunken log2 fold change” value came out at 0.0773.

Consider RRIRHRPPRLPRPRPRPCIFPRP, for which the “shrunken log2 fold change” value is -0.597.

For RRIRKRPPRLPRPRPRPCPWPRP, the “shrunken log2 fold change” value is 0.332.

With RRIRSRPPRLPRPRPRPVVDPRP, the “shrunken log2 fold change” value stood at 0.125.

As to RRIRGRPPRLPRPRPRPISIPRP, the “shrunken log2 fold change” value stood at 0.199.

Turning to RRIRKRPPRLPRPRPRPVTRPRP, the “shrunken log2 fold change” value is 0.754.

On to RRIRFRPPRLPRPRPRPIKDPRP, for which the “shrunken log2 fold change” value was -0.234.

As to RRIRMRPPRLPRPRPRPSGPPRP, the “shrunken log2 fold change” value is 0.205.

On to RRIRNRPPRLPRPRPRPKSEPRP, for which the “shrunken log2 fold change” value was -0.414.

Regarding RRIRARPPRLPRPRPRPRNRPRP, the “shrunken log2 fold change” value amounted to 0.0657.

Take RRIRHRPPRLPRPRPRPFNLPRP: the “shrunken log2 fold change” value is -0.189.

For the sequence RRIRGRPPRLPRPRPRPKDMPRP, the “shrunken log2 fold change” value is 0.213.

For the sequence RRIRVRPPRLPRPRPRPCYKPRP, the “shrunken log2 fold change” value was -0.691.

For RRIRVRPPRLPRPRPRPVMGPRP, the “shrunken log2 fold change” value worked out at 0.216.

Regarding RRIRYRPPRLPRPRPRPKGWPRP, the “shrunken log2 fold change” value came out at 0.465.

Consider RRIRTRPPRLPRPRPRPTMAPRP, for which the “shrunken log2 fold change” value is 0.201.

Consider RRIRIRPPRLPRPRPRPADMPRP, for which the “shrunken log2 fold change” value is -0.0222.

With RRIRYRPPRLPRPRPRPMDTPRP, the “shrunken log2 fold change” value is -0.216.

As to RRIRSRPPRLPRPRPRPRAQPRP, the “shrunken log2 fold change” value amounted to 0.106.

As to RRIRQRPPRLPRPRPRPAEIPRP, the “shrunken log2 fold change” value is -0.219.

Consider RRIRSRPPRLPRPRPRPPPMPRP, for which the “shrunken log2 fold change” value was found to be 0.817.

In the case of RRIRNRPPRLPRPRPRPPPVPRP, the “shrunken log2 fold change” value turned out to be 0.933.

For the sequence RRIRIRPPRLPRPRPRPRILPRP, the “shrunken log2 fold change” value was -0.188.

RRIRCRPPRLPRPRPRPHFWPRP: the “shrunken log2 fold change” value is 0.125.

Consider RRIRCRPPRLPRPRPRPMFPPRP, for which the “shrunken log2 fold change” value is -0.511.

In the case of RRIRWRPPRLPRPRPRPRPCPRP, the “shrunken log2 fold change” value turned out to be 0.514.

As to RRIRWRPPRLPRPRPRPEMKPRP, the “shrunken log2 fold change” value was 0.271.

Take RRIRNRPPRLPRPRPRPFHSPRP: the “shrunken log2 fold change” value was -0.0225.

In the case of RRIRARPPRLPRPRPRPVSVPRP, the “shrunken log2 fold change” value is 0.137.

Take RRIRCRPPRLPRPRPRPAHMPRP: the “shrunken log2 fold change” value is -0.249.

With RRIRVRPPRLPRPRPRPVRGPRP, the “shrunken log2 fold change” value turned out to be 0.767.

Take RRIRQRPPRLPRPRPRPSTEPRP: the “shrunken log2 fold change” value was -0.0926.

With RRIRQRPPRLPRPRPRPDKNPRP, the “shrunken log2 fold change” value was -0.635.

Regarding RRIRGRPPRLPRPRPRPFDFPRP, the “shrunken log2 fold change” value is 0.26.

For RRIRYRPPRLPRPRPRPNLIPRP, the “shrunken log2 fold change” value is -0.438.

For the sequence RRIRYRPPRLPRPRPRPHIWPRP, the “shrunken log2 fold change” value is -0.272.

Turning to RRIRCRPPRLPRPRPRPADVPRP, the “shrunken log2 fold change” value is -0.391.

Take RRIRNRPPRLPRPRPRPMNLPRP: the “shrunken log2 fold change” value turned out to be 0.0249.

Consider RRIRMRPPRLPRPRPRPRNGPRP, for which the “shrunken log2 fold change” value turned out to be 0.833.

In the case of RRIRARPPRLPRPRPRPPECPRP, the “shrunken log2 fold change” value turned out to be 0.327.

Consider RRIRLRPPRLPRPRPRPNWKPRP, for which the “shrunken log2 fold change” value is -0.225.

Consider RRIRGRPPRLPRPRPRPNYIPRP, for which the “shrunken log2 fold change” value is -0.099.
